Assay [1] addresses hCRBPII Q108K:K40L:Y60W (human). Put plainly: SEC.

In the assay with hCRBPII E72A (human), hCRBPII E72A (natural protein) showed a percent dimer of 50%.

Broadly, the stoichiometry N is a count of units in the complex or per binding partner. As for “hCRBPII Q108K:K40L:Y60W (natural protein)”, the stoichiometry N in assay [1] was 2.

The record behind these values is publication PMC5330279.
